Experimental data as given in patent publication CN114195890A (UNIV SHANGHAI TRAFFIC, dated 2022).

Target: T1, 抗原K27-3Ub (化学合成的K27连接泛素链蛋白) (UniProt P0CG48 1-76, ubiquitin units joined through K27 linkages (K27 of one ubiquitin to the C-terminus of the next); biotinylated (biotin-K27-3Ub) in the ELISA)
T1 construct: Chemically synthesised K27-linked tri-ubiquitin provided by the Liu Lei group, Tsinghua University; also called biotin-K27-3Ub; K27泛素链
Assay: SPR, Biacore 8K, antibody captured on Protein A chip, K27-3Ub as analyte, 1:1 fit

- Kd: 3.66 nM
- koff: 0.00234 s⁻¹
B1: 全长抗体蛋白IgG.zl1901 (antibody, V domains shown)
VH: EVQLVESGAEVKKPGASVKVSCKASGYTFTSYYMHWVRQAPGQGLEWMGIINPSGGSTSYAQKFQGRVTMTRDTSTSTVYMELSSLRSEDTAVYYCARGLRAELLHYYYGMDVWGQGTTVTVSS
VL: not shown
notes: also called 全长抗体IgG.zl1901
